Experimental data published in PMC7948927.

Tests used:
Assay in all cases: MST
[1] = biological target: OGG1 WT (Homo sapiens) (UniProt O15527); conditions: N at position 11 of strand 1 = THF (tetrahydrofuran abasic site analog), opposite C; MST: 100 nM labeled duplex, 0.0185-3.28 uM protein, 10 mM Na phosphate pH 7.5, 7% glycerol; temperature not stated
[2] = biological target: OGG1 I145M I145M (Homo sapiens) (UniProt O15527); conditions: saturation not reached; N at position 11 of strand 1 = THF (tetrahydrofuran abasic site analog), opposite C; MST: 100 nM labeled duplex, 0.0185-3.28 uM protein, 10 mM Na phosphate pH 7.5, 7% glycerol; temperature not stated
[3] = biological target: OGG1 R161W R161W (Homo sapiens) (UniProt O15527); conditions: saturation not reached; N at position 11 of strand 1 = THF (tetrahydrofuran abasic site analog), opposite C; MST: 100 nM labeled duplex, 0.0185-3.28 uM protein, 10 mM Na phosphate pH 7.5, 7% glycerol; temperature not stated
[4] = biological target: OGG1 S292N S292N (Homo sapiens) (UniProt O15527); conditions: saturation not reached; N at position 11 of strand 1 = THF (tetrahydrofuran abasic site analog), opposite C; MST: 100 nM labeled duplex, 0.0185-3.28 uM protein, 10 mM Na phosphate pH 7.5, 7% glycerol; temperature not stated
OGG1 S292N S292N (Homo sapiens), sequence (O15527 whole entry S292N): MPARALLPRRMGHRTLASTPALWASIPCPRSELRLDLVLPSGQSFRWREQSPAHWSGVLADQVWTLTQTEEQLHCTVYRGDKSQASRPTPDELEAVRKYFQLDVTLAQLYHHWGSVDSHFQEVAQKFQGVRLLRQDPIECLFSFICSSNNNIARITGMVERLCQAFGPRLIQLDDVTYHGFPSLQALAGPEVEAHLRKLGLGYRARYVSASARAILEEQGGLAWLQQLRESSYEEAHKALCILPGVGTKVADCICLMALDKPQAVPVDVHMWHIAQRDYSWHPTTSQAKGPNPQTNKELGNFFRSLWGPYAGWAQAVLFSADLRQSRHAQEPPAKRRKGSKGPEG

OGG1 R161W R161W (Homo sapiens), sequence (O15527 whole entry R161W): as the sequence (O15527 whole entry S292N) above, with R161W, N292S counted along it
OGG1 WT (Homo sapiens), sequence (O15527 whole entry): as the sequence (O15527 whole entry S292N) above, with N292S counted along it
OGG1 I145M I145M (Homo sapiens), sequence (O15527 whole entry I145M): as the sequence (O15527 whole entry S292N) above, with I145M, N292S counted along it

Question: With “CTCTCCCTTCNCTCCTTTCCTCT / AGAGGAAAGGAGCGAAGGGAGAG [THF:C duplex]” as the sequence, how does the Kd [1] read?
Answer: 140 nM

Question: And the Kd [2]?
Answer: 900 nM

Question: And the Kd [3]?
Answer: 1060 nM

Question: What about the Kd [4] of the same sequence?
Answer: 1390 nM
